Experimental data: patent publication US20180273587A1 (AILERON THERAPEUTICS, published 2018)
Positions of bridges follow the written chain, without caps; N, C: chain ends. Non-standard residues stand in square brackets, D forms with d. Phe(4-CF3) = N[C@@H](Cc1ccc(C(F)(F)F)cc1)C(=O)O; Phe(4-tBu) = CC(C)(C)c1ccc(C[C@H](N)C(=O)O)cc1; R8 = C=CCCCCCC[C@@](C)(N)C(=O)O; S5 = C=CCCC[C@](C)(N)C(=O)O

How the values were obtained:
Assay in all cases: Ki; method not stated; unit not printed (nM per Table 6)
MCL-1 = molecular target: T1, MCL-1 (UniProt Q07820 172-327, limits assumed)
T1 construct: Target of the Ki columns; also called Myeloid cell leukemia 1
T1 sequence (Q07820 172-327 limits assumed): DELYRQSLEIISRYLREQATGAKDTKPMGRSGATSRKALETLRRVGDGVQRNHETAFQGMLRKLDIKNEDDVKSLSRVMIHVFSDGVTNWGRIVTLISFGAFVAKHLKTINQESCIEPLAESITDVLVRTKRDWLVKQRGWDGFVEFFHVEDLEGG

BCL-XL = molecular target: T2, BCL-XL (UniProt Q07817 1-209)
T2 construct: Target of the Ki columns
T2 sequence (Q07817 1-209): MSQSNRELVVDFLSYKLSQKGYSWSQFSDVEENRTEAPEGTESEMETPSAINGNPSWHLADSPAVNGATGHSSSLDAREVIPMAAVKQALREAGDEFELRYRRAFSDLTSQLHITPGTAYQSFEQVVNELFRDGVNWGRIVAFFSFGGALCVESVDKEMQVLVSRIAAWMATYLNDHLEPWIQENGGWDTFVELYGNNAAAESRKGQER

BCL-2 = molecular target: T3, BCL-2 (UniProt P10415 1-217, limits assumed)
T3 construct: Target of the Ki columns
T3 sequence (P10415 1-217 limits assumed): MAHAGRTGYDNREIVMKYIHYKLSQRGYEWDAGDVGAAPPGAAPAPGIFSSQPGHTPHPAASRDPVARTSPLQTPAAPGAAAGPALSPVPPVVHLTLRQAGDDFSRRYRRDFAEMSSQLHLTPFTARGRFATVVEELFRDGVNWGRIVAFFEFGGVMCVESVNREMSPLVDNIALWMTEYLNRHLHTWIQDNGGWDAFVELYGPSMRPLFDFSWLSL

Row | Ki (MCL-1) | Ki (BCL-XL) | Ki (BCL-2) | Binder
1 | 8.2 nM | 107 nM | 104 nM | Ac-IWIAQALR[R8]IGDA[Phe(4-CF3)]N[S5]YYA-NH2 (staple 9-16; SMILES CC[C@H](C)[C@H](NC(C)=O)C(=O)N[C@@H](Cc1c[nH]c2ccccc12)C(=O)N[C@H](C(=O)N[C@@H](C)C(=O)N[C@@H](CCC(N)=O)C(=O)N[C@@H](C)C(=O)N[C@@H](CC(C)C)C(=O)N[C@@H](CCCNC(=N)N)C(=O)N[C@]1(C)CCCCCCC=CCCC[C@@](C)(C(=O)N[C@@H](Cc2ccc(O)cc2)C(=O)N[C@@H](Cc2ccc(O)cc2)C(=O)N[C@@H](C)C(N)=O)NC(=O)[C@H](CC(N)=O)NC(=O)[C@H](Cc2ccc(C(F)(F)F)cc2)NC(=O)[C@H](C)NC(=O)[C@H](CC(=O)O)NC(=O)CNC(=O)[C@H]([C@@H](C)CC)NC1=O)[C@@H](C)CC) [SEQ ID NO: 1744]
2 | 1.5 nM | 25.9 nM | 35.3 nM | Ac-IWIAAALR[R8]IGDAFD[S5]YYA-NH2 (staple 9-16; SMILES CC[C@H](C)[C@H](NC(C)=O)C(=O)N[C@@H](Cc1c[nH]c2ccccc12)C(=O)N[C@H](C(=O)N[C@@H](C)C(=O)N[C@@H](C)C(=O)N[C@@H](C)C(=O)N[C@@H](CC(C)C)C(=O)N[C@@H](CCCNC(=N)N)C(=O)N[C@]1(C)CCCCCCC=CCCC[C@@](C)(C(=O)N[C@@H](Cc2ccc(O)cc2)C(=O)N[C@@H](Cc2ccc(O)cc2)C(=O)N[C@@H](C)C(N)=O)NC(=O)[C@H](CC(=O)O)NC(=O)[C@H](Cc2ccccc2)NC(=O)[C@H](C)NC(=O)[C@H](CC(=O)O)NC(=O)CNC(=O)[C@H]([C@@H](C)CC)NC1=O)[C@@H](C)CC) [SEQ ID NO: 1748]
3 | 1.8 nM | 17.9 nM | 30.7 nM | Ac-IWIAAALR[R8]IGDAFE[S5]YYA-NH2 (staple 9-16; SMILES CC[C@H](C)[C@H](NC(C)=O)C(=O)N[C@@H](Cc1c[nH]c2ccccc12)C(=O)N[C@H](C(=O)N[C@@H](C)C(=O)N[C@@H](C)C(=O)N[C@@H](C)C(=O)N[C@@H](CC(C)C)C(=O)N[C@@H](CCCNC(=N)N)C(=O)N[C@]1(C)CCCCCCC=CCCC[C@@](C)(C(=O)N[C@@H](Cc2ccc(O)cc2)C(=O)N[C@@H](Cc2ccc(O)cc2)C(=O)N[C@@H](C)C(N)=O)NC(=O)[C@H](CCC(=O)O)NC(=O)[C@H](Cc2ccccc2)NC(=O)[C@H](C)NC(=O)[C@H](CC(=O)O)NC(=O)CNC(=O)[C@H]([C@@H](C)CC)NC1=O)[C@@H](C)CC) [SEQ ID NO: 1749]
4 | 6.5 nM | 100 nM | 114 nM | IWIAQALRAIGDAXNAYYA (N-terminal Ac; $r8 at 9 and $ at 16 (crosslinked); Bip at 14; C-terminal NH2) [SEQ ID NO: 1747]
5 | 21.2 nM | 154 nM | 158 nM | Ac-IWIAQALR[R8]IGDA[Phe(4-tBu)]N[S5]YYA-NH2 (staple 9-16; SMILES CC[C@H](C)[C@H](NC(C)=O)C(=O)N[C@@H](Cc1c[nH]c2ccccc12)C(=O)N[C@H](C(=O)N[C@@H](C)C(=O)N[C@@H](CCC(N)=O)C(=O)N[C@@H](C)C(=O)N[C@@H](CC(C)C)C(=O)N[C@@H](CCCNC(=N)N)C(=O)N[C@]1(C)CCCCCCC=CCCC[C@@](C)(C(=O)N[C@@H](Cc2ccc(O)cc2)C(=O)N[C@@H](Cc2ccc(O)cc2)C(=O)N[C@@H](C)C(N)=O)NC(=O)[C@H](CC(N)=O)NC(=O)[C@H](Cc2ccc(C(C)(C)C)cc2)NC(=O)[C@H](C)NC(=O)[C@H](CC(=O)O)NC(=O)CNC(=O)[C@H]([C@@H](C)CC)NC1=O)[C@@H](C)CC) [SEQ ID NO: 1745]
